PMC3072145

What was measured:
Hfq-75 = Hfq-75 (Escherichia coli, UniProt P0A6X3 1-75, del76-102); assay: EMSA
Hfq-65 = Hfq-65 (Escherichia coli, UniProt P0A6X3 1-65, del66-102); assay: EMSA

B1: rA18 (ssRNA)
RNA: AAAAAAAAAAAAAAAAAA
B1: binds (Hfq-75); binds (Hfq-65).
